B1: humanized B-F5 H37L/L4L (antibody, V domains shown)
VH: EEQLVESGGGLVKPGGSLRLSCAASGFSFSDCRMYWLRQAPGKGLEWIGVISVKSENYGANYAESVRGRFTISRDDSKNTVYLQMNSLKTEDTAVYYCSASYYRYDVGAWFAYWGQGTLVTVSS
VL: DIVLTQSPDSLAVSLGERATINCRASKSVSTSGYSYIYWYQQKPGQPPKLLIYLASILESGVPDRFSGSGSGTDFTLTISSLQAEDVAVYYCQHSRELPWTFGQGTKVEIK
notes: expressed in Sp2/0, purified on protein A; also called H37L/L4L IgG1; hB-F5
B2: humanized B-F5 H37V/L4M (antibody, V domains shown)
VH: EEQLVESGGGLVKPGGSLRLSCAASGFSFSDCRMYWVRQAPGKGLEWIGVISVKSENYGANYAESVRGRFTISRDDSKNTVYLQMNSLKTEDTAVYYCSASYYRYDVGAWFAYWGQGTLVTVSS
VL: DIVMTQSPDSLAVSLGERATINCRASKSVSTSGYSYIYWYQQKPGQPPKLLIYLASILESGVPDRFSGSGSGTDFTLTISSLQAEDVAVYYCQHSRELPWTFGQGTKVEIK
notes: also called hB-F5
B3: humanized B-F5 H37V/L4L (antibody, V domains shown)
VH: EEQLVESGGGLVKPGGSLRLSCAASGFSFSDCRMYWVRQAPGKGLEWIGVISVKSENYGANYAESVRGRFTISRDDSKNTVYLQMNSLKTEDTAVYYCSASYYRYDVGAWFAYWGQGTLVTVSS
VL: DIVLTQSPDSLAVSLGERATINCRASKSVSTSGYSYIYWYQQKPGQPPKLLIYLASILESGVPDRFSGSGSGTDFTLTISSLQAEDVAVYYCQHSRELPWTFGQGTKVEIK
notes: also called hB-F5
B4: humanized B-F5 H37L/L4M IgG1 (BT061) (antibody, V domains shown)
VH: EEQLVESGGGLVKPGGSLRLSCAASGFSFSDCRMYWLRQAPGKGLEWIGVISVKSENYGANYAESVRGRFTISRDDSKNTVYLQMNSLKTEDTAVYYCSASYYRYDVGAWFAYWGQGTLVTVSS
VL: DIVMTQSPDSLAVSLGERATINCRASKSVSTSGYSYIYWYQQKPGQPPKLLIYLASILESGVPDRFSGSGSGTDFTLTISSLQAEDVAVYYCQHSRELPWTFGQGTKVEIK
notes: also called hB-F5; humanised B-F5

Target: T1, soluble CD4 (human, UniProt P01730 26-396, limits assumed)
T1 construct: The assay paragraph says only 'soluble CD4'
Test: competitive ELISA, inhibition of biotinylated mB-F5 binding to coated soluble CD4, 37 °C 2 hours
Experimental: Culture supernatants of transfectomas producing the four versions of hB-F5 were collected, and concentrated. The different antibodies were purified from culture supernatants by affinity chromatography using protein A Sepharose and assessed for their CD4 binding activity by measuring, by means of competitive ELISA, their inhibitory activities against the binding of biotinylated mB-F5 to soluble CD4 coated on microtiter plates. Incubation, time is 2 hours for 37° C. and overnight for 4° C.

Binder	Relative binding activity (% of mB-F5)
B1	30 % of mB-F5
B2	10 % of mB-F5
B3	10 % of mB-F5
B4	30 % of mB-F5
